This note sets out measurements from paper PMC4642536, “Structural analysis of fungus-derived FAD glucose dehydrogenase” (Scientific Reports, 2015).

This data set deals with the molecule itself. In words: SEC; size exclusion chromatography of GOx as comparison to AfGDH; elution volume corresponding to the dimer; conditions not shown (Supplementary Figure S4). In general terms: In gel filtration, larger molecules generally elute earlier.

B1: glucose oxidase (enzyme, UniProt P13006 17-605, looked up)
chain: LPHYIRSNGIEASLLTDPKDVSGRTVDYIIAGGGLTGLTTAARLTENPNISVLVIESGSYESDRGPIIEDLNAYGDIFGSSVDHAYETVELATNNQTALIRSGNGLGGSTLVNGGTWTRPHKAQVDSWETVFGNEGWNWDNVAAYSLQAERARAPNAKQIAAGHYFNASCHGVNGTVHAGPRDTGDDYSPIVKALMSAVEDRGVPTKKDFGCGDPHGVSMFPNTLHEDQVRSDAAREWLLPNYQRPNLQVLTGQYVGKVLLSQNGTTPRAVGVEFGTHKGNTHNVYAKHEVLLAAGSAVSPTILEYSGIGMKSILEPLGIDTVVDLPVGLNLQDQTTATVRSRITSAGAGQGQAAWFATFNETFGDYSEKAHELLNTKLEQWAEEAVARGGFHNTTALLIQYENYRDWIVNHNVAYSELFLDTAGVASFDVWDLLPFTRGYVHILDKDPYLHHFAYDPQYFLNELDLLGQAAATQLARNISNSGAMQTYFAGETIPGDNLAYDADLSAWTEYIPYHFRPNYHGVGTCSMMPKEMGGVVDNAARVYGVQGLRVIDGSIPPTQMSSHVMTVFYAMALKISDAILEDYASMQ
notes: glucose oxidase (GOx) used as the comparison in size exclusion chromatography; probably the glycosylated enzyme; also called GOx
What is called stoichiometry N is the number of molecules, sites or subunits per partner or assembly. With B1, the “stoichiometry N” value was found to be 2.
